Laboratory results from PMC4419694.

How the values were obtained:
Experiment in all cases: AUC
[1] = target: SSBΔ120-166 (E. coli)
[2] = target: SSBΔ130-166 (E. coli)
[3] = target: SSBΔ151-166 (E. coli)
[4] = target: SSBΔC8 (E. coli)

Question: Which stoichiometry N [1] does the source give for SSBΔ120-166 (natural protein) here?
Answer: 4

Question: Which stoichiometry N [2] does the source give for SSBΔ130-166 (natural protein) here?
Answer: 4

Question: How did the stoichiometry N [3] turn out when SSBΔ151-166 (natural protein) was run?
Answer: 4

Question: How did the stoichiometry N [4] turn out when SSBΔC8 (domain or fragment) was run?
Answer: 4
